Experimental data published in publication PMC10901774 (2024).
Where no end group is shown, it is not given here. [ ]: non-standard residue; d: D form.

B5: recombinant CHIP (C-terminus of Hsc70-interacting protein) TPR domain (domain or fragment)
chain: GASPSAQELKEQGNRLFVGRKYPEAAACYGRAITRNPLVAVYYTNRALCYLKMQQHEQALADCRRALELDGQSVKAHFFLGQCQLEMESYDEAIANLQRAYSLAKEQRLNFGDDIPSALRIAKKKRWNSIEERR
modifications: biotinylated in the TR-FRET assay

Legend:
[1] = target: FAM-Hsp70 peptide (peptide model of the heat shock protein 70 C-terminus), L-form (UniProt P0DMV8, 5(6)-carboxyfluorescein (FAM)); assay: FRET
Chain of FAM-Hsp70 peptide (peptide model of the heat shock protein 70 C-terminus), L-form (P0DMV8 whole entry, looked up, tested part not stated): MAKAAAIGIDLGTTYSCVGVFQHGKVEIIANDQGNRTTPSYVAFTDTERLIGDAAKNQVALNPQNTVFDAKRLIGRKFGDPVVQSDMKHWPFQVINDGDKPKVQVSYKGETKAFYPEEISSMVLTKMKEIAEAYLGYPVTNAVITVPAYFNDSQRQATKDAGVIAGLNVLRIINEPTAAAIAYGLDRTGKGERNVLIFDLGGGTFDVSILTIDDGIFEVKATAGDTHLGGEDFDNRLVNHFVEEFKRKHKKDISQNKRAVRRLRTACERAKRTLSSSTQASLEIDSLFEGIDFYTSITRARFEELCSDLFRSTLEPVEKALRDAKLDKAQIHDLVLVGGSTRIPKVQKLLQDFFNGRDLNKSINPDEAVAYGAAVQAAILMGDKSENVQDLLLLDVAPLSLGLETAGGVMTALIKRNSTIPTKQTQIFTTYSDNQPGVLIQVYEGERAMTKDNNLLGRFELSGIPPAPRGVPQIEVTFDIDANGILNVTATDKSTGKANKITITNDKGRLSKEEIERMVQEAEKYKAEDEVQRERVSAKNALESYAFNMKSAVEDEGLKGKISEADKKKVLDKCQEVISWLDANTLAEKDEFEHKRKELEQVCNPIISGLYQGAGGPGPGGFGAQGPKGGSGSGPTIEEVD

[2] = target: FAM-Hsp70 peptide (peptide model of the heat shock protein 70 C-terminus), D-form (UniProt P0DMV8, all residues D-amino acids; 5(6)-carboxyfluorescein (FAM)); assay: FRET
Chain of FAM-Hsp70 peptide (peptide model of the heat shock protein 70 C-terminus), D-form (P0DMV8 whole entry, looked up, tested part not stated): as above

[3] = target: p53-derived model peptide, FAM-labelled (L-form) (UniProt P04637, 5(6)-carboxyfluorescein (FAM)); assay: FRET
Chain of p53-derived model peptide, FAM-labelled (L-form) (P04637 whole entry, looked up, tested part not stated): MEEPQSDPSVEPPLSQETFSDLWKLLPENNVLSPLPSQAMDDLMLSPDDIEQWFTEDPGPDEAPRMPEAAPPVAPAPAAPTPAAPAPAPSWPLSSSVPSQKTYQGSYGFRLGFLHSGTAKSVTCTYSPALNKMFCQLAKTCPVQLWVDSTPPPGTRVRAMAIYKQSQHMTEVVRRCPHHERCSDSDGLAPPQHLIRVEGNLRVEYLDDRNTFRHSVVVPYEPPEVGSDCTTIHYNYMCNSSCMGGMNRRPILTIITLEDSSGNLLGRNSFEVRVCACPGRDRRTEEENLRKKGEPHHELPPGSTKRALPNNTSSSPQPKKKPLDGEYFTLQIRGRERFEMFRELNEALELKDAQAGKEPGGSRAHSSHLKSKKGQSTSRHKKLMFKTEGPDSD

[4] = target: p53-derived model peptide, FAM-labelled (D-form) (UniProt P04637, all residues D-amino acids; 5(6)-carboxyfluorescein (FAM)); assay: FRET
Chain of p53-derived model peptide, FAM-labelled (D-form) (P04637 whole entry, looked up, tested part not stated): as above

[5] = target: B5; assay: FP

B1: synthetic L-CHIP (TPR domain) (domain or fragment)
chain: SPSAQELKEQGNRLFVGRKYPEAAACYGRAITRNPLVAVYYTNRALCYLKMQQHEQALADCRRALELDGQSVKAHFFLGQCQLEMESYDEAIANLQRAYSLAKEQRLNFGDDIPSALRIAKKKRWNSIEERR
modifications: biotin at the N-terminus through a PEG12 linker
For B1, which Kd [1] is on record?
Its Kd is 3800 nM.

B2: synthetic D-CHIP (TPR domain) (domain or fragment)
chain: SPSAQELKEQGNRLFVGRKYPEAAACYGRAITRNPLVAVYYTNRALCYLKMQQHEQALADCRRALELDGQSVKAHFFLGQCQLEMESYDEAIANLQRAYSLAKEQRLNFGDDIPSALRIAKKKRWNSIEERR
modifications: all residues D-amino acids; biotin at the N-terminus through a PEG12 linker
B2 was tested. Which Kd [2] did it give?
The Kd was 3500 nM.

B3: recombinant MDM2 (mouse double minute 2 homolog) (domain or fragment)
chain: SQIPASEQETLVRPKPLLLKLLKSVGAQKDTYTMKEVLFYLGQYIMTKRLYDEKQQHIVYCSNDLLGDLFGVPSFSVKEHRKIYTMIYRNLVVVN
modifications: biotinylated in the TR-FRET assay
How did the Kd [3] turn out when B3 was run?
Its Kd is 10 nM.

B4: synthetic D-MDM2 (domain or fragment)
chain: SQIPASEQETLVRPKPLLLKLLKSVGAQKDTYTMKEVLFYLGQYIMTKRLYDEKQQHIVYCSNDLLGDLFGVPSFSVKEHRKIYTMIYRNLVVVN
modifications: all residues D-amino acids; biotin at the N-terminus through a PEG12 linker
B4 was tested. Which Kd [4] did it give?
The Kd was 13 nM.

[dP][dW][dW][dE][dC][dL][dS][dQ][dA][dD][dD][dC][dD][dF][dR] (staple (positions not given here)) [D-H202] was tested. Which IC50 [5] did it give?
The IC50 was 1230 nM.

How did the Kd [1] turn out when B5 was run?
The Kd was 4000 nM.
